Data: PMC3679298

Legend:
[1] = biological target: HLA-C*03:04 on single-antigen beads; assay: Luminex single-antigen HLA bead binding assay
[2] = biological target: HLA-C*06:02 on single-antigen beads; assay: Luminex single-antigen HLA bead binding assay

Kd [1] [µM]	Kd [2] [µM]	MFI at 20 μg/ml [2] [MFI]	Substance
0.7	24	< 500	soluble KIR2DL2*003 Fc fusion protein (sKIR2DL2*003) (from UniProt P43627 22-245)
1.2	–	–	soluble KIR2DL3*002 Fc fusion protein (sKIR2DL3*002) (from UniProt P43628 22-245)
–	4.3	< 500	soluble KIR2DL2*006 Fc fusion protein (sKIR2DL2*006) (from UniProt P43627 22-245)
0.2	–	< 500	soluble KIR2DL2*001 Fc fusion protein (sKIR2DL2*001) (from UniProt P43627 22-245)
0.1	7	< 500	soluble KIR2DL3*005 Fc fusion protein (sKIR2DL3*005) (from UniProt P43628 22-245)
1	–	–	soluble KIR2DL3*001 Fc fusion protein (sKIR2DL3*001) (from UniProt P43628 22-245)
